How the values were obtained:
PD-L1 (human) = assay: flow cytometry, CHO cells stably expressing PD-L1
CTLA4 (human) = assay: flow cytometry, CHO cells stably expressing CTLA4
CD28 (human) = CD28 (human) (UniProt P10747); assay: flow cytometry, Jurkat cells (CD28)
human PD-1 (human) = human PD-1 (human) (UniProt Q15116)
Chain of human PD-1 (human) (Q15116 25-288): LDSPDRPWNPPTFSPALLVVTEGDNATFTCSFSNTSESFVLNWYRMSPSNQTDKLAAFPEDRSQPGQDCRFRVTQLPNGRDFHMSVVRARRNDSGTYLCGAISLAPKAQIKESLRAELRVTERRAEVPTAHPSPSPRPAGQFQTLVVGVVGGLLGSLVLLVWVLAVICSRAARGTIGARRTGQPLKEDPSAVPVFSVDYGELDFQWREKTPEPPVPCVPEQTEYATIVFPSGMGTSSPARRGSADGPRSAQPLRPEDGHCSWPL

Chain of CTLA4 (human) (chain, as listed by the source): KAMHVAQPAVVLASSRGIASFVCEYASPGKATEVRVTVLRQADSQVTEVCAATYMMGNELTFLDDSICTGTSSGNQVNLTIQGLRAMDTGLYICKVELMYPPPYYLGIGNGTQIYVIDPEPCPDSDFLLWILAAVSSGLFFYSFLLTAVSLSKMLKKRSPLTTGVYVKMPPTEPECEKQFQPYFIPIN
Chain of PD-L1 (human) (chain, as listed by the source): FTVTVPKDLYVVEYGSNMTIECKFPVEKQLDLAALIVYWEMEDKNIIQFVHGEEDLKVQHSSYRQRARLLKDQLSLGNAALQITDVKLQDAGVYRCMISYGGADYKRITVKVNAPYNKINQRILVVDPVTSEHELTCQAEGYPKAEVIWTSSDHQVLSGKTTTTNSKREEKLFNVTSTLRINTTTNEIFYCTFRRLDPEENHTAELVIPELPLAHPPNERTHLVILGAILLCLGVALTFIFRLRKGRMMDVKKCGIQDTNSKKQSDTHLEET

Row | Binder | Fold change to WT (PD-L1 (human)) [fold] | MFI at 33.3 nM (PD-L1 (human)) [MFI] | Fold change to WT CD80 (CTLA4 (human)) [fold] | MFI at 33.3 nM (CTLA4 (human)) [MFI] | Fold change to WT (CD28 (human)) [fold] | MFI at 33.3 nM (CD28 (human)) [MFI] | IFN gamma levels pg/mL (MLR) (human PD-1 (human)) [pg/mL]
1 | CD80 variant H18L/V22A/E35D/M47L/N48T/L85Q IgV-Fc (Fc fusion) VIHVTKEVKEVATLSCGLNVSAEELAQTRIYWQKDKKMVLTMMSGDLTIWPEYKNRTIFDITNNLSIVILALRPSDEGTYECVVQKYEKDAFKREHLAEVT | 12.3 | 98100 | 2.09 | 374000 | 0.06 | 434 | 
2 | CD80 variant Q33L/E35D/N48K/L85Q/L97Q IgV-Fc (Fc fusion) VIHVTKEVKEVATLSCGHNVSVEELAQTRIYWLKDKKMVLTMMSGDMKIWPEYKNRTIFDITNNLSIVILALRPSDEGTYECVVQKYEKDAFKREHQAEVT | 5.69 | 45200 | 0.01 | 1180 | 0.04 | 279 | 
3 | CD80 variant E35D/M47V/A71G/L85M/L97Q IgV-Fc (Fc fusion) VIHVTKEVKEVATLSCGHNVSVEELAQTRIYWQKDKKMVLTMMSGDVNIWPEYKNRTIFDITNNLSIVILGLRPSDEGTYECVVMKYEKDAFKREHQAEVT | 7.77 | 61700 | 1.34 | 239000 | 0.04 | 339 | 
4 | CD80 variant H18Y/V20A/Q33L/E35D/M47V/Y53F IgV-Fc (Fc fusion) VIHVTKEVKEVATLSCGYNASVEELAQTRIYWLKDKKMVLTMMSGDVNIWPEFKNRTIFDITNNLSIVILALRPSDEGTYECVVLKYEKDAFKREHLAEVT | 15.2 | 121000 | 0.02 | 2880 | 0.03 | 260 | 
5 | CD80 variant E35D/M47I/E77A/L85Q/R94W IgV-Fc (Fc fusion) VIHVTKEVKEVATLSCGHNVSVEELAQTRIYWQKDKKMVLTMMSGDINIWPEYKNRTIFDITNNLSIVILALRPSDAGTYECVVQKYEKDAFKWEHLAEVT | 8.12 | 64500 | 1.38 | 247000 | 0.04 | 272 | 
6 | CD80 variant Q27H/Q33L/E35D/M47V/N55D/L85Q/K89N IgV-Fc (Fc fusion) VIHVTKEVKEVATLSCGHNVSVEELAHTRIYWLKDKKMVLTMMSGDVNIWPEYKDRTIFDITNNLSIVILALRPSDEGTYECVVQKYENDAFKREHLAEVT | 1.86 | 14800 | 0.31 | 56100 | 0.04 | 269 | 
7 | CD80 variant H18Y/Y31H/E35D/M47V/A71G/L85Q IgV-Fc (Fc fusion) VIHVTKEVKEVATLSCGYNVSVEELAQTRIHWQKDKKMVLTMMSGDVNIWPEYKNRTIFDITNNLSIVILGLRPSDEGTYECVVQKYEKDAFKREHLAEVT | 9.61 | 76400 | 0.02 | 3840 | 0.04 | 268 | 
8 | CD80 variant H18Y/E35D/V68M/L97Q IgV-Fc (Fc fusion) VIHVTKEVKEVATLSCGYNVSVEELAQTRIYWQKDKKMVLTMMSGDMNIWPEYKNRTIFDITNNLSIMILALRPSDEGTYECVVLKYEKDAFKREHQAEVT | 15.3 | 122000 | 0.97 | 173000 | 0.04 | 299 | 
9 | CD80 variant Q33L/E35D/M43V/M47I/A71G IgV-Fc (Fc fusion) VIHVTKEVKEVATLSCGHNVSVEELAQTRIYWLKDKKMVLTMVSGDINIWPEYKNRTIFDITNNLSIVILGLRPSDEGTYECVVLKYEKDAFKREHLAEVT | 9.82 | 78000 | 0.08 | 14000 | 0.04 | 284 | 
10 | CD80 variant V22A/E35D/V68E/A71D IgV-Fc (Fc fusion) VIHVTKEVKEVATLSCGHNVSAEELAQTRIYWQKDKKMVLTMMSGDMNIWPEYKNRTIFDITNNLSIEILDLRPSDEGTYECVVLKYEKDAFKREHLAEVT | 0.17 | 1350 | 2.45 | 437000 | 1.83 | 14000 | 
11 | CD80 variant Q33L/E35D/M43I/L85Q/R94W IgV-Fc (Fc fusion) VIHVTKEVKEVATLSCGHNVSVEELAQTRIYWLKDKKMVLTMISGDMNIWPEYKNRTIFDITNNLSIVILALRPSDEGTYECVVQKYEKDAFKWEHLAEVT | 3.65 | 29000 | 0.01 | 1080 | 0.04 | 272 | 
12 | CD80 variant Q33L/E35D/M47L/V68M/L85Q/E88D IgV-Fc (Fc fusion) VIHVTKEVKEVATLSCGHNVSVEELAQTRIYWLKDKKMVLTMMSGDLNIWPEYKNRTIFDITNNLSIMILALRPSDEGTYECVVQKYDKDAFKREHLAEVT | 15.8 | 126000 | 0.02 | 3530 | 0.03 | 264 | 
13 | CD80 variant E35D/D46E/M47V/L97Q IgV-Fc (Fc fusion) VIHVTKEVKEVATLSCGHNVSVEELAQTRIYWQKDKKMVLTMMSGEVNIWPEYKNRTIFDITNNLSIVILALRPSDEGTYECVVLKYEKDAFKREHQAEVT | 2.45 | 19500 | 1.71 | 305000 | 0.05 | 371 | 
14 | CD80 variant Q33L/E35D/M47L/A71G/F92S IgV-Fc (Fc fusion) VIHVTKEVKEVATLSCGHNVSVEELAQTRIYWLKDKKMVLTMMSGDLNIWPEYKNRTIFDITNNLSIVILGLRPSDEGTYECVVLKYEKDASKREHLAEVT | 3.53 | 28000 | 0.01 | 2110 | 0.05 | 366 | 
15 | CD80 variant V22A/R29H/E35D/D46E/M47I IgV-Fc (Fc fusion) VIHVTKEVKEVATLSCGHNVSAEELAQTHIYWQKDKKMVLTMMSGEINIWPEYKNRTIFDITNNLSIVILALRPSDEGTYECVVLKYEKDAFKREHLAEVT | 3.2 | 25400 | 0.43 | 77400 | 0.04 | 323 | 
16 | variant PD-L2 IgV Q82R/V89D Fc fusion (Fc fusion) LFTVTVPKELYIIEHGSNVTLECNFDTGSHVNLGAITASLQKVENDTSPHRERATLLEEQLPLGKASFHIPQVQVRDEGQYRCIIIYGDAWDYKYLTLKVKA |  |  |  |  |  |  | 1620
17 | variant PD-L2 IgV S39I/V89D Fc fusion (Fc fusion) LFTVTVPKELYIIEHGSNVTLECNFDTGSHVNLGAITAILQKVENDTSPHRERATLLEEQLPLGKASFHIPQVQVRDEGQYQCIIIYGDAWDYKYLTLKVKA |  |  |  |  |  |  | 1310
18 | variant PD-L2 IgV S67L/I86T Fc fusion (Fc fusion) LFTVTVPKELYIIEHGSNVTLECNFDTGSHVNLGAITASLQKVENDTSPHRERATLLEEQLPLGKALFHIPQVQVRDEGQYQCIITYGVAWDYKYLTLKVKA |  |  |  |  |  |  | 1020
19 | variant PD-L2 IgV S67L/V89D Fc fusion (Fc fusion) LFTVTVPKELYIIEHGSNVTLECNFDTGSHVNLGAITASLQKVENDTSPHRERATLLEEQLPLGKALFHIPQVQVRDEGQYQCIIIYGDAWDYKYLTLKVKA |  |  |  |  |  |  | 1230
20 | variant PD-L2 IgV E59G/Q82R Fc fusion (Fc fusion) LFTVTVPKELYIIEHGSNVTLECNFDTGSHVNLGAITASLQKVENDTSPHRERATLLEGQLPLGKASFHIPQVQVRDEGQYRCIIIYGVAWDYKYLTLKVKA |  |  |  |  |  |  | 1510
21 | variant PD-L2 IgV H15Q/T47A/Q82R Fc fusion (Fc fusion) LFTVTVPKELYIIEQGSNVTLECNFDTGSHVNLGAITASLQKVENDASPHRERATLLEEQLPLGKASFHIPQVQVRDEGQYRCIIIYGVAWDYKYLTLKVKA |  |  |  |  |  |  | 1320
22 | variant PD-L2 IgV H15Q/S67L/R76G Fc fusion (Fc fusion) LFTVTVPKELYIIEQGSNVTLECNFDTGSHVNLGAITASLQKVENDTSPHRERATLLEEQLPLGKALFHIPQVQVGDEGQYQCIIIYGVAWDYKYLTLKVKA |  |  |  |  |  |  | 1430
23 | variant PD-L2 IgV H15Q/C23S/I86T Fc fusion (Fc fusion) LFTVTVPKELYIIEQGSNVTLESNFDTGSHVNLGAITASLQKVENDTSPHRERATLLEEQLPLGKASFHIPQVQVRDEGQYQCIITYGVAWDYKYLTLKVKA |  |  |  |  |  |  | 1850
24 | variant PD-L2 IgV H15Q/R76G/I85F Fc fusion (Fc fusion) LFTVTVPKELYIIEQGSNVTLECNFDTGSHVNLGAITASLQKVENDTSPHRERATLLEEQLPLGKASFHIPQVQVGDEGQYQCIFIYGVAWDYKYLTLKVKA |  |  |  |  |  |  | 1730

Reference: patent US20250163127A1
